Assay results as given in patent publication US20130018176A1, “METHODS OF PRODUCING HYBRIDOMAS AND MONOCLONAL ANTIBODIES AND ANTIBODIES PRODUCED THEREBY” (AMGEN INC., priority 2007, published 2013).

Experiments:
[1] = system: rcyno hepcidin; experiment: BIAcore solution equilibrium binding analysis on immobilized antibody; design: species or system cyno
Experimental: The following example describes KinExA and BIAcore binding analysis for various antibodies to recombinant cyno hepcidin (rcyno).
B) BIAcore Solution Equilibrium Binding Analysis for mAb R9 and Ab43 Binding to rcynoHepc.
Antibody surface immobilization: antibodies R9 and Ab43 were immobilized on a CM5 chip. The immobilization was performed at a flow rate 10 uL/min of running buffer (DPBS: Dulbecco's Phosphate Buffer Saline1X, GIBCO 14190, with 0.005% BIAcore surfactant P-20) according to manufacturer's instructions. The carboxylated matrix of the sensor chip was first activated with a 100 ul injection of 1:1 mixture of EDC (75 mg/mL N-ethyl-N-(dimethylamine-propyl)carbodiimide in water, from BIAcore) and NHS (11.5 mg/mL N-hydroxysuccinimide in water, from BIAcore). 180 ul of antibodies (−20 ug/ml in 10 mM Na-acetate pH4.0) was injected to immobilize onto the sensor chip at 30 uL/min. […]
BIAcore analysis: Fixed concentrations of rcynoHepc were incubated with various concentrations of mAb R9 and Ab43 at room temperature for several hours before run through the immobilized antibody surfaces. […] The equilibrium dissociation constant (KD) was calculated from nonlinear regression analysis of the competition curves using a one-curve one-site homogeneous binding model (KinEx™ software, Sapidyne Instruments Inc., Boise Id.).

[2] = biological target: T1, mature human hepcidin (SEQ ID NO: 9) (Homo sapiens, UniProt P81172); experiment: Epitope specificity: antibody binding to immobilized hepcidin surface after pre-complex with hepcidin variants (BIAcore); details: interpretation of Table 6
T1 construct: made in house; host or cells: recombinant
Experimental: (§1) The epitope specificity of anti-human hepcidin antibodies was evaluated by assessing ability of the antibodies to bind to mature human hepcidin (SEQ ID NO: 9) after pre-complex formation with different hepcidin variants.
(§2) Recombinant hepcidin was immobilized on a CM5 chip according to manufacturer's instructions at a flow rate 10 μL/min of running buffer (DPBS: Dulbecco's Phosphate Buffer Saline1X, GIBCO 14190, with 0.005% BIAcore surfactant P-20). The carboxylated matrix of the sensor chip was first activated with a 100 μL injection of 1:1 mixture of EDC (75 mg/mL N-ethyl-N-(dimethylamine-propyl)carbodiimide in water, from Biacore) and NHS (11.5 mg/mL N-hydroxysuccinimide in water, from Biacore). 180 μL of rhHepc (˜20 μg/ml in 10 mM Na-acetate pH4.0) was injected to immobilize onto the sensor chip at 30 μL/min. The excess reactive groups of the sensor chip were deactivated with an injection of 100 μL of ethanolamine (1.0M, from Biacore).
(§3) Forms of hepcidin used for the pre-complex were: correctly folded hepcidin as a positive control, the C1-C8, C3-C6 hepcidin variant (see Example 9), hepcidin 20 (N-terminally truncated, see Example 9) and linear hepcidin (Example 9). 1 nM solutions of antibody (2.41, 2.7, 43, and R9) were preincubated with 10 nM of each antigen at room temperature for several hours before run through the immobilized hepcidin surface. The binding signal obtained was proportional to the concentration of free antibody in solution at equilibrium.
(§4) Some antibodies require the five amino acids at the N-terminus of the molecule (e.g. Ab43 and to a lesser extent, R9).

[3] = biological target: T2, mature human hepcidin (SEQ ID NO: 9) (Homo sapiens, UniProt P81172); experiment: as above; details: interpretation of Table 6; remark: listed apart in the source
T2 construct: made in house; host or cells: recombinant
T2 sequence (P81172 60-84): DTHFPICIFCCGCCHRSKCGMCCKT
Experimental: as §1, §2, §3, §4

[4] = system: mature human hepcidin (SEQ ID NO: 9); experiment: as above
Experimental: as §1, §2, §3, §4

[5] = biological target: T3, synthetic human hepcidin (Homo sapiens, UniProt P81172); experiment: Iron-responsive beta-lactamase assay in 293/Fpn/BLA cells; format: cell-based; details: 50 ng/mL synthetic human hepcidin, 2.5 ug/mL ferric citrate, read-out: EC50, decreased intracellular concentration of iron
T3 construct: made in house; host or cells: chemical synthesis (Fmoc solid phase), oxidatively folded
T3 sequence (P81172 60-84 limits assumed): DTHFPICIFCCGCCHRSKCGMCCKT
Experimental: The effect of anti-human hepcidin antibodies on this hepcidin-mediated iron sequestration was evaluated in vitro. […] These 293/Fpn/BLA cells, taken from a 70-80% confluent culture, were plated at 2.8×10^5 cells/mL in DMEM (Invitrogen Cat#11965) 5% FBS (Invitrogen Cat#10099-141) PSQ (Invitrogen Cat#10378-016), 90 uL/well (25,000 cells/well) in BioCoat Poly-D Lysine coated plates (Becton-Dickinson Cat#35-6640) and incubated at 37C with 5% CO2. At the end of the same day, a solution of assay medium (DMEM 5% FBS PSQ) with 100 ug/mL doxycycline was made, 10 uL/well of it added to the plate, and the plate incubated overnight or for at least 20 hours. […] Mixtures were added at 100 uL/well and incubated overnight at 37C, 5% CO2 in a cell culture incubator. Plates were then removed from the incubator and equilibrated to room temperature for 10 minutes before adding 20 uL/well of the prepared Invitrogen GeneBlazer CCF4 A/M development reagent (Invitrogen Kit# K1085) and incubating for 90 minutes in the dark. Development reagent was also added to 16 wells of a control assay plate without cells containing 100 uL assay medium (DMEM 5% FBS PSQ) and incubated for the same time. Blue & Green fluorescence signals were then read on an Envision Multilabel Reader (Perkin-Elmer Inc.) by exciting at 409 nm and reading emissions at 447 nm (blue) and 520 nm (green).

Chain of rcyno hepcidin (as listed by the source): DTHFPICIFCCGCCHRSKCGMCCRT

B1: Antibody Ab43: murine anti-human hepcidin monoclonal antibody generated by viral immunization; CDRs SEQ ID NOs: 16-21 (antibody, V domains shown)
VH: QIQLVQSGPELKKPGETVKISCKASGYTFTTYGMSWVKQAPGKGLKWMGWINTYSGVPTYADDFKGRFAFSLETSASTAYLQINNLKNEDTATYFCASLWYYGRAFDYWGQGTTLTVSS
VL: NIVLTQSPASLAVSLGQRATISCRASESVDSYGNSFMHWYQQKPGQPPKLLIYLASNLESGVPARFSGSGSRTDFTLTIDPVEADDAATYYCQQNNEDRTFGGGTKLEIK
[1]
  binding affinity to rcyno hepcidin: significant binding affinity
[2]
  Binding to Solution Epitopes, Hepc20: − (100% antibody binding to the hepcidin surface and therefore no inhibition by hepcidin in solution)
[3]
  Binding to Solution Epitopes, Folded Hepcidin: ++++ (0% antibody binding to the hepcidin surface and therefore 100% inhibition by hepcidin in solution)
[4]; 1 nM antibody preincubated with 10 nM C1-C8, C3-C6 hepcidin variant
  Binding to Hepcidin Surface, C1-C8 C3-C6: 25%
[4]; interpretation of Table 6
  Binding to Solution Epitopes, Linear Hepcidin: − (100% antibody binding to the hepcidin surface and therefore no inhibition by hepcidin in solution)
[5]
  EC50: 13.8 nM
